± gives the standard deviation of the averaged measurements.
B1: library; a variant is named by its letters at N, in order (parent)
chain: GCUGUCACCGGUGUAUUACCCUAGUGGUCGACCGGUCUGAUGAGUCUNNNNNNAGACGAAACAGC

Legend:
hypoxanthine [1] = variants of: B1; assay: normalized RNA/DNA level with ligand (relative to sTRSVctl = 100) (log10 (% of sTRSVctl)); ligand: hypoxanthine (xanthine aptamer); higher = less ribozyme self-cleavage, higher mRNA level; settings: ligand concentration (+) RNA-Seq: 5 mM, HEK293T, reporter: mCherry (pCS4076), ligand present: yes
How it was run: (§1)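 Library plasmids carrying ribozyme switches linked to mCherry, or to eGFP in some ligand experiments, were transfected into HEK293T at 4 µg per 6-well well, with any ligand added 1 h earlier. Seventy-two hours on, total RNA was extracted with EDTA and reverse-transcribed, amplified, barcoded and sequenced. RNA level was RNA over DNA reads normalized to a spiked-in non-cleaving sequence or to the top sequences, then scaled and log-transformed. The top set was 25 sequences, the transform was ×100 and log10, and sequences needed ≥100 DNA reads.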

hypoxanthine [2] = variants of: B1; assay: normalized RNA/DNA level without ligand (relative to sTRSVctl = 100) (log10 (% of sTRSVctl)); ligand: hypoxanthine (xanthine aptamer); higher = less ribozyme self-cleavage, higher mRNA level; settings: HEK293T, reporter: mCherry (pCS4076), ligand present: no
How it was run: as §1

Variant	normalized RNA/DNA level with ligand (log10) (hypoxanthine [1])	normalized RNA/DNA level without ligand (log10) (hypoxanthine [2])
GGUCCG	2.01 ± 0.061	1.829 ± 0.018
GGUCCC	1.92 ± 0.05	1.902 ± 0.0045
AUACAU	1.91 ± 0.03	1.794 ± 0.017
AGUAGG	1.78 ± 0.051	1.368 ± 0.013
GGUCAG	1.94 ± 0.023	1.69 ± 0.012
GGUCAA	1.94 ± 0.036	1.83 ± 0.034
GGUCAU	1.94 ± 0.037	1.89 ± 0.041
UGUGAG	1.894 ± 0.015	1.588 ± 0.011
UGUGAA	1.908 ± 0.012	1.76 ± 0.025
UGUGAU	1.9 ± 0.026	1.77 ± 0.023
AGUAUC	1.96 ± 0.044	1.931 ± 0.013
AGUAUG	1.824 ± 0.017	1.39 ± 0.043
AGUAUU	1.922 ± 0.015	1.86 ± 0.037
UUACAG	1.92 ± 0.029	1.63 ± 0.036
UUACAA	1.96 ± 0.022	1.796 ± 0.012
CGUUUU	1.92 ± 0.073	1.833 ± 0.014
CGUUUG	1.96 ± 0.067	1.864 ± 0.0052
CGUUUA	1.89 ± 0.032	1.68 ± 0.013
CUAACC	1.91 ± 0.051	1.83 ± 0.038
CUAACA	1.88 ± 0.069	1.84 ± 0.031
CUAACU	1.92 ± 0.033	1.869 ± 0.0023
CUAACG	1.923 ± 0.017	1.88 ± 0.033
AUAGCC	1.936 ± 0.0032	1.82 ± 0.028
GGUUAA	1.93 ± 0.062	1.77 ± 0.072

Variant	normalized RNA/DNA level with ligand (log10) (hypoxanthine [1])	normalized RNA/DNA level without ligand (log10) (hypoxanthine [2])
GGUUAU	1.94 ± 0.052	1.79 ± 0.03
UUACGC	1.94 ± 0.029	1.81 ± 0.054
UUACGG	1.94 ± 0.04	1.85 ± 0.029
UUACGA	1.923 ± 0.01	1.89 ± 0.022
GGUGUU	1.97 ± 0.051	1.88 ± 0.03
GGUGUC	1.916 ± 0.0061	1.846 ± 0.018
AUACUC	1.93 ± 0.05	1.96 ± 0.071
AUACUU	1.92 ± 0.022	1.859 ± 0.0037
CUAAUA	1.87 ± 0.029	1.79 ± 0.026
CUAAUU	1.94 ± 0.043	1.869 ± 0.006
UUAACC	1.941 ± 0.0056	1.921 ± 0.0067
UUAACU	1.932 ± 0.017	1.841 ± 0.012
UUAACA	1.93 ± 0.059	1.9 ± 0.0046
CGUCGC	1.9 ± 0.11	1.909 ± 0.01
CGUCGG	1.9 ± 0.026	1.57 ± 0.035
CGUCGA	1.914 ± 0.011	1.85 ± 0.052
CGUCGU	2.05 ± 0.051	1.98 ± 0.036
CUAAGA	1.947 ± 0.013	1.838 ± 0.011
CUAAGG	1.91 ± 0.032	1.75 ± 0.046
CGUGUU	1.97 ± 0.054	1.89 ± 0.071
CGUGUG	1.903 ± 0.015	1.75 ± 0.08
CGUGUA	1.93 ± 0.024	1.68 ± 0.042
CGUGUC	1.947 ± 0.015	1.94 ± 0.039
GUACUU	1.9422 ± 0.0012	1.889 ± 0.006

Variant	normalized RNA/DNA level with ligand (log10) (hypoxanthine [1])	normalized RNA/DNA level without ligand (log10) (hypoxanthine [2])
GUACUG	1.883 ± 0.0029	1.53 ± 0.056
GUACUA	1.937 ± 0.014	1.86 ± 0.037
GUACUC	1.93 ± 0.053	1.92 ± 0.032
UGUGUC	1.98 ± 0.041	1.958 ± 0.0027
UGUGUA	1.92 ± 0.032	1.79 ± 0.058
UGUGUU	1.95 ± 0.071	1.887 ± 0.0068
AGUGGG	1.89 ± 0.076	1.543 ± 0.007
AGUGGU	1.898 ± 0.015	1.55 ± 0.056
GUAGCA	1.8839 ± 9.6e-05	1.8 ± 0.023
GGUGAA	1.9 ± 0.061	1.65 ± 0.024
AGUUAU	1.89 ± 0.057	1.8 ± 0.068
UGUAGU	1.88 ± 0.029	1.5 ± 0.071
CGUCUG	1.95 ± 0.11	1.957 ± 0.013
CGUCUU	2.01 ± 0.035	1.958 ± 0.018
CGUCUC	2 ± 0.023	2.03 ± 0.017
CGUCUA	1.93 ± 0.025	1.87 ± 0.029
AGUUCC	1.922 ± 0.0092	1.886 ± 0.0063
AGUUCG	1.857 ± 0.017	1.43 ± 0.021
AGUUCU	1.8964 ± 0.00099	1.86 ± 0.056
GGUUUC	1.946 ± 0.011	1.916 ± 0.0058
CGUUGA	1.96 ± 0.024	1.834 ± 0.014
CGUUGU	1.98 ± 0.05	1.89 ± 0.059
CGUUGC	1.96 ± 0.1	1.91 ± 0.088
GGUCUG	1.87 ± 0.06	1.71 ± 0.029

Variant	normalized RNA/DNA level with ligand (log10) (hypoxanthine [1])	normalized RNA/DNA level without ligand (log10) (hypoxanthine [2])
GGUCUU	1.933 ± 0.018	1.94 ± 0.025
GGUCUC	2.006 ± 0.016	1.96 ± 0.037
UGUUCG	1.94 ± 0.074	1.8368 ± 0.00097
UGUUCU	1.93 ± 0.058	1.97 ± 0.051
UGUUCC	2.03 ± 0.011	1.93 ± 0.022
UGUUCA	1.96 ± 0.093	1.87 ± 0.029
UGUGGG	1.93 ± 0.014	1.64 ± 0.035
UGUGGU	1.89 ± 0.037	1.68 ± 0.017
UGUGGC	1.99 ± 0.04	1.8784 ± 0.00098
AGUCCA	1.95 ± 0.05	1.868 ± 0.015
AGUCCC	1.94 ± 0.026	1.931 ± 0.012
AGUCCG	1.9 ± 0.09	1.528 ± 0.0051
GUACAC	1.919 ± 0.0031	1.79 ± 0.041
GUACAU	1.9 ± 0.034	1.77 ± 0.056
CGUUAG	1.944 ± 0.01	1.77 ± 0.17
CGUUAC	1.91 ± 0.082	1.717 ± 0.0087
CGUUAU	1.916 ± 0.006	1.753 ± 0.011
AGUUGU	1.93 ± 0.043	1.63 ± 0.076
AGUUGA	1.915 ± 0.0047	1.63 ± 0.032
CUACUG	1.942 ± 0.0056	1.925 ± 0.0027
CUACUC	2.039 ± 0.013	1.95 ± 0.025
CUACUU	1.99 ± 0.028	1.83 ± 0.026
AUAACC	1.943 ± 0.0094	1.8816 ± 0.0015
AUAACG	1.87 ± 0.062	1.43 ± 0.11

Variant	normalized RNA/DNA level with ligand (log10) (hypoxanthine [1])	normalized RNA/DNA level without ligand (log10) (hypoxanthine [2])
AUAACU	1.93 ± 0.034	1.88 ± 0.027
AGUGUC	1.98 ± 0.11	1.88 ± 0.02
AGUGUU	1.96 ± 0.031	1.81 ± 0.027
AGUUUG	1.89 ± 0.077	1.55 ± 0.035
AGUUUU	1.97 ± 0.077	1.947 ± 0.013
AGUUUC	1.92 ± 0.033	1.93 ± 0.033
CGUAGU	1.99 ± 0.086	1.87 ± 0.037
GUACGA	1.91 ± 0.04	1.686 ± 0.0047
GUACGC	1.95 ± 0.033	1.84 ± 0.062
UGUCUC	1.999 ± 0.0092	2.013 ± 0.019
UGUCUU	2.01 ± 0.033	1.907 ± 0.0099
UGUCUG	1.93 ± 0.037	1.77 ± 0.03
GUAAUA	1.878 ± 0.0069	1.823 ± 0.0023
AUAAAA	1.88 ± 0.031	1.8 ± 0.04
CGUGGC	1.901 ± 0.0033	1.883 ± 0.013
CGUGGU	1.95 ± 0.021	1.86 ± 0.026
GGUUCC	1.99 ± 0.081	1.95 ± 0.022
GGUUCU	1.977 ± 0.018	1.9 ± 0.022
GGUUCA	1.916 ± 0.0031	1.89 ± 0.046
GGUUCG	1.92 ± 0.063	1.69 ± 0.051
